Test results reported in PMC13534887.

Biological target: PaMprF H566C mutant (Pseudomonas aeruginosa)
Assay: cross-linking + native gel or EMSA; purified enzymes in GDN and in nanodisc, with cross-linker; SDS added to the sample before loading on the BN-PAGE gel

PaMprF H566C mutant (enzyme)
stoichiometry N: 2
